Among the data in article PMC5819829, “Cell-free synthesis of functional antibody fragments to provide a structural basis for antibody–antigen interaction” (PLoS ONE, 2018) are Kd, koff and kon values, retold here.

B1: 059-152-Fv (Fv fragment of the fully human anti-EGFR antibody 059-152) (other)
VH: QVQLQESGPGLVKPSETLSLTCTVSGGSISSSSYYWGWIRQPPGKGLEWIGSIYYSGSTYYNPSLKSRVTISVDTSKNQFSLKLSSVTAADTAVYYCARLPMVTMSFDYWGQGTLVTVSS
VL: SYVLTQPPSVSVAPGKTARITCGGNNIGSKSVHWYQQKPGQAPVLVIYYDSDRPSGIPERFSGSNSGNTATLTISRVEAGDEADYYCQVWDSSSDHVVFGGGTKLTVL
notes: also in PDB 5XWD; VL also in PDB 5XWD; Fv: VH and VL synthesised together as two separate chains; source: cell-free synthesis (E. coli S30 extract, dialysis mode, 0.2 mg/ml DsbC), purified (HisTrap, TEV cleavage, SEC); not shown: N11-tag, N-terminal, cleaved
B2: 059-152-Fab (Fab fragment of the fully human anti-EGFR antibody 059-152) (Fab, V domains shown)
VH: B1 VH
VL: B1 VL
notes: also in PDB 5XWD; its VL part is in PDB 5XWD; source: cell-free synthesis (E. coli S30 extract, dialysis mode, 0.8 mg/ml DsbC), purified (HisTrap, TEV cleavage, SEC); not shown: N11-tag, N-terminal, cleaved
B3: Alexa-488 conjugated 059-152-Fv (other, human)
VH: B1 VH
VL: B1 VL
notes: also in PDB 5XWD; linker inserted just before the stop codon, followed by the amber codon that is read as AzF; Fv; m3 after copper-free click chemistry; also called Alexa-488 conjugated Fv; not shown: N11-tag, N-terminal, cleaved
B4: AzF-incorporated 059-152-Fab (Fab, V domains shown)
VH: B1 VH
VL: B1 VL
notes: also in PDB 5XWD; linker inserted just before the stop codon, followed by the amber codon that is read as AzF; AzF is the last residue of the VHCH1 chain, after the linker; also called AzF-incorporated Fab; not shown: N11-tag, N-terminal, cleaved
B5: AzF-incorporated 059-152-Fv (other, human)
VH: B1 VH
VL: B1 VL
notes: also in PDB 5XWD; linker inserted just before the stop codon, followed by the amber codon that is read as AzF; Fv; AzF is the last residue of the VH chain, after the linker; also called AzF-incorporated Fv; not shown: N11-tag, N-terminal, cleaved
B6: Alexa-488 conjugated 059-152-Fab (Fab, V domains shown)
VH: B1 VH
VL: B1 VL
notes: also in PDB 5XWD; linker inserted just before the stop codon, followed by the amber codon that is read as AzF; m6 after copper-free click chemistry; also called Alexa-488 conjugated Fab; not shown: N11-tag, N-terminal, cleaved

For the assay, the target named is T1, EGFR-ECD (extracellular domain of human epidermal growth factor receptor, 1-643) (Homo sapiens, UniProt P00533, N-linked oligosaccharides cleaved by endoglycosidase H).
T1 construct: human epidermal growth factor receptor, extracellular domain, residues 1-643 as printed; A TEV site between the ECD and the His-tag is implied by the cleavage; also called extracellular domain of human EGFR; human EGFR-ECD; source: HEK293S GnTI- cells, transient overexpression, secreted; purified (HisTrap, TEV cleavage of the His-tag, endoglycosidase H, HiTrap Q, SEC); not shown: His-tag, …
Briefly: SPR; BIAcore 3000; EGFR-ECD immobilised on a CM5 chip by amine coupling; single-cycle kinetics with 50.0, 16.6, 5.55, 1.85 and 0.617 nM Fv or Fab; 30 ul/min, 60-s association, 120-s dissociation; 25 C; HBS-EP+ buffer; triplicate. The conditions noted are these: both partners purified. On the technique in general: Surface plasmon resonance follows binding to a sensor surface in real time, without labels.
Broadly, the Kd is the free concentration of one partner at which half of the binding sites on the other are occupied at equilibrium, for simple one-to-one binding. A high value points to a looser complex. Usually koff stands for the first-order rate constant of dissociation. Lower therefore signals a long-lived complex. As a reminder, the kon is the second-order rate constant of association. A higher kon goes with faster complex formation. Turning to B1, the affinity, expressed as Kd, was 5.9 ± 0.1 nM; the koff turned out to be 0.0147 s⁻¹; the kon was determined as 2.49e+06 M⁻¹ s⁻¹.
Regarding B2, the Kd is 7.7 ± 0.1 nM, the koff is 0.015 s⁻¹ and the kon stood at 1.94e+06 M⁻¹ s⁻¹.
Regarding B3, the Kd worked out at 6.1 ± 0.1 nM, the koff came to 0.0154 s⁻¹ and the kon turned out to be 2.52e+06 M⁻¹ s⁻¹.
For the molecule B4, binding was put at a Kd of 7 ± 0.1 nM, the koff came to 0.0125 s⁻¹ and the kon is 1.78e+06 M⁻¹ s⁻¹.
Consider B5, for which binding was put at a Kd of 5.8 ± 0.2 nM, the koff came out at 0.0137 s⁻¹ and the kon was found to be 2.36e+06 M⁻¹ s⁻¹.
On the same counts, the results for B6 are 8.1 ± 0.2 nM, 0.0133 s⁻¹ and 1.67e+06 M⁻¹ s⁻¹.
